{
  "source": "the DeepSol protein solubility set",
  "data": [
    {"assay": "soluble on expression in E. coli; label from the status in PepcDB or PDB records", "values": [
      {"sequence": "GPGSMAHEHGNEFAGPGGGNGGNGGNVMLQCVKQHTDLSHIEDLGSQISAGAGCCGFSREAHGKRGQDLWLQLPLGTQVVDMDTNEVQYDMDEEGMQIVLLEGGQGGKGNAAFANKWHHSPIESTKGLPGNTMLAQIELKTIADCGLIGYPNAGKSSLLSAISASKPTIAPYAFTTLRPYVGVLHDLYGNVCRVADIPGLIEGAYENRGLGHQFLRHVERTKCLALVVDMCNTYVPDTGLRNSSEVLQPWDVVELLLQELEYYLPGMSQRVIMTFANKMDIEKDSTGTATQVKLSELKRRVSMPVFPISAALGIHLGPQHEQTGLAPALQFMCGEVFARQSQEREMRQFRFSHERAQLERAFRAKHNGVFLPQVHALGAHGAEASQDLDDEAADRGGSLVDQQLDFLGNSGLGVKFDAYENSAARGQLHRYRDLTMKGKYWNLTRQDGEVMKGEKWS", "soluble on expression in E. coli": "not soluble"},
      {"sequence": "MAHHHHHHMAHGAAQCTLAAPGCVYLTPEQEEQLVDRLYTQSLLQKEATLAELDARYYPVTASQTISQETLQKSVQRQVDVEMERRQQRRKEMDAMAVAKAMGHASGSRAAASKKTVTAEETDVSVRRLYDDALAQKKARKAESERLYAFHPEDLKSAKMSKAALQESVNRMSKPKKTEFAVAEVNKIYGL", "soluble on expression in E. coli": "soluble"},
      {"sequence": "ILGIKTLLAVYRLFGRKAFDLILKLVMRYYHFTGKSAREASEIYLQNLQRYAAQQNIALPKQLDSYHHLLSFGRTMLDKLAAWQGDFNVDNLTIHGQHHFEEMAQKKQGVLILGSHLGNIELCRALGRRHSHVKINALVFTQHAEQFNAVMKAVNPNSELNLIQVSSMGPDTAILLQQKIEQGEWVVIVGDRTSTSKENRVVWADFLGKPAPFPQGPFMLASVLKAPVYLLFGLRDDEANTPHFNVYFEHFSDQITLPRKERQQALEHVVQQYAHRLEHHTLQAPLQWYNFFNFWTLSNQPHDKQQ", "soluble on expression in E. coli": "not soluble"},
      {"sequence": "MSLTGNPPNPAGIKTDYLWKKILTPQGLTDILENYAQVVEEKDEKTGKKKKVQIFPRYHQLDVVRKLLAHAEWHGAGMRYLVQHSAGSGKSNSIAWLAHQLISLKKDDKEIFDSIIVITDRRVLDKQIRDTIKQFAQVGSTVGHAERSGDLRKFIESGKKIIISTVQKFPFILDEIGNEHRGRKFAIIIDEAHSSQGGRTAAAMSEALSDSKDQKDPEDTINDALQKRMEARKMLPNASYFAFTATPKNKTLELFGEPYKDGDKIKHRPFHNYTMKQAIQEGFILDVLRYYTPVNSYYKLIKTVESDPEFDTKKAKKKLRKYVESHDYAIRLKAEIIVDHFQEQVIALNKIGGQARAMVVTNGIERAIQYYHAIRDYLLELNSPYKAIVAFSGEHEYGGVKVTEATLNGFPSSQIEDKIEEEPYRFLICADKFQTGYDEPLLHTMYVDKVLSGIKAVQTLSRLNRAHPKKHDVFVLDFMNDTDTIQDAFSDYYRTTVLSDETDPNKLHDLKSDLDSYQAYSPEQIEQFVELYLGGADRDKLDPILDVCVATYKDHLDEDEQVDFKSKAKAFSRTYGFLASILPYTNADWEKLSIFLNFLIPKLPAPREEDLSKGILEAIDMDSYRVEKQAVVNIQLPDSDSEIEPVPTEAGGFKPEPELDRLSNILKTFNDQFGNIRWTDSDRVHRLITEEIPARVAADVAYQNAKKNSDKQNAKIEHDKALARVMIALMKDDTQLFKLFSDNESFRRTLTDAIFERTYSEGHHHHHH", "soluble on expression in E. coli": "not soluble"},
      {"sequence": "MTTDQIAAFCLQLPGAREDLKWGSNRVFSVAGNKMFAILDFVDKDGGLAFKVGSELFLGYVDRPGIRPAPYLARAHWIVMARPYPMKAAELREALVRSHQLVVARLPKRQRLGLVLDA", "soluble on expression in E. coli": "not soluble"},
      {"sequence": "MGTPQGKLKTINGVGKIEDFASTKAKMRVRYPLLITFNYWVLYKSPDKSWFISANPSTEDVWVYARSVPSKAKLNRMMMKVRELGYDVKKLEFPLEHHHHHH", "soluble on expression in E. coli": "not soluble"},
      {"sequence": "MKFSESVPLYKQPLSIPAEQLPQPDLNRNLPLSKYFLMMKTPEIGFQKAEVRDVLLRKVVLNEIEKIPAIWNCKNTYNANKLYPEVAVQVYRRTGTLLHTKMVQMVFKTAKDSLRNRLRDAISRKGLNEVDTEAHLLEWEYYPFVRFYREVSEGWEDRMRKTKQLEKREPAGGVGIVGDDENSMDVEEEPYENPDIIWDDVADPESPTTSMSSTLTSTQGTFTDYHPEEPYHNPEPPLIHPTLEYAAMKTASLQRNQQNKHVMEVRHGSETRTVVVMPTEPPRQQLNAPDFAEEMLQVTYQATRIAREQPERVKLLRKALFDTVLAFDQKEYNCVADLYRDLAEKSSR", "soluble on expression in E. coli": "not soluble"},
      {"sequence": "MAHHHHHHMLLGSFADFSVNGASTVDMPLAPSLEYVARMLRELPSVLHAEQWPTQFVCDSNAPLSGSGTELRNAEAITSSSSSVLERTLLGISPLSGTDAAVSQFLERLGGATTSLALRSLFDLCHADVWNLLGVAATSPISRLAALEKLAAAANGSASAPGPCRPVLDAETLEFKDILVWAWNRQYGCVGLRRLFFEMQVLFYRYAMNAQATSKQSRAGNGATLRDVCELWAVWRLSLQKWSAAFLAKLGTHEQTADVLDASTLRADACDLMRQHAIAVSGLAEVQRMALRVITKLQTVDAKGWFAVPAFDLVNVDFTSVRYWISSPVFARKSKREAYRSLCRTLERMVDSCVQKYGPTHAFSDVITTVRQQLVDVARAEGLL", "soluble on expression in E. coli": "not soluble"},
      {"sequence": "MKQADQTYRGQFKDDLYDGAGQLELADGSRYQGLFAKGKPNGAGVRSDASGNQFSGHFVNGQLQGAGTYDSVDGEQYIGEFKDNRLEGRGRYENADGDVWIGEFKDGSLIGEGELLGSDGSHYKGEFADWRLSGQGSLQLADGSKYIGGFLNDAYHGHGRLILPSGKVESGTWANGVRVRDQNGKLLPDPLDLALLNQGRLLDEALVRVPRSAPPIQLYSLVVAGDGQQSVFLREADYVSRMLKVRFGARGQVTLVNHRDHMATRPMATRENLSRAAATLAERSGPEDLVFIYLTSHGSQDHQLVLDQPRLQLADLAADELATALAPLKDRDKVIVISACYSGGYIAPLKDERTLIMTAARADRVSFGCSEEADFTYFGDALFAEALNQTDDLKQAFELARASVAEREQREGFEASEPQLWAPPAVLEHWHQLRQQQAEEALRNATQANVSKQAKMPGTHLEHHHHHH", "soluble on expression in E. coli": "soluble"},
      {"sequence": "MQQYAQRDKKHEYWFAVPQERTDHLYAFFIQWSPEIYAEDTGEYTREPGFIVVKKIEESETIEDSSNQAAAREWEITTREDINSKQVATVKADLESESFRPNLSDPSELLLPDQIEKLTKHLPPRTIGYPWTLVYGTGKHGTSLKTLYRTMTGLDTPVLMVIKDSDGQVFGALASEPLKVSDGFYGTGETFVFTFCPEFEVFKWTGDDMFFIKGDMDSLAFGGGGGEFALWLDGDLYHGRSHSCKTFGNRTLSKKEDFFIQDIEIWAFELEHHHHHH", "soluble on expression in E. coli": "not soluble"},
      {"sequence": "MGSSHHHHHHSSGLVPRGSHMASMYTVGDYLLDRLHELGIEEIFGVPGDYNLQFLDQIISREDMKWIGNANELNASYMADGYARTKKAAAFLTTFGVGELSAINGLAGSYAENLPVVEIVGSPTSKVQNDGKFVHHTLADGDFKHFMKMHEPVTAARTLLTAENATYEIDRVLSQLLKERKPVYINLPVDVAAAKAEKPALSLEKESSTTNTTEQVILSKIEESLKNAQKPVVIAGHEVISFGLEKTVTQFVSETKLPITTLNFGKSAVDESLPSFLGIYNGKLSEISLKNFVESADFILMLGVKLTDSSTGAFTHHLDENKMISLNIDEGIIFNKVVEDFDFRAVVSSLSELKGIEYEGQYIDKQYEEFIPSSAPLSQDRLWQAVESLTQSNETIVAEQGTSFFGASTIFLKSNSRFIGQPLWGSIGYTFPAALGSQIADKESRHLLFIGDGSLQLTVQELGLSIREKLNPICFIINNDGYTVEREIHGPTQSYNDIPMWNYSKLPETFGATEDRVVSKIVRTENEFVSVMKEAQADVNRMYWIELVLEKEDAPKLLKKMGKLFAEQNK", "soluble on expression in E. coli": "soluble"},
      {"sequence": "MNAERCEFIAGNSLIEVIPSISDDRPIHLISGDIGPFEAGVPCRIPVWTAILMKRKHNCKVVAPQWMDVDELKKILTSETESQGLAKLPDHFFEISHMLVRDAREDIFEVEAVKSLVQDIYDRRDAKLRSSAIEFLRQNQTCHAQLDNVQLIEASSARATLEACRQMGAVVRNKHESTPL", "soluble on expression in E. coli": "not soluble"},
      {"sequence": "MTNERVMQLIREAYEKNLTTLDLSENQLTQLPSEITELKNLTTLNLSGNQLTQLPSEIGELKSLTSFDLSVNQLTQLPPEIGELKNLTILNVYRNQLIQLLPEITELKNLTTLDLSLNKLTQLPPEIGELEHHHHHH", "soluble on expression in E. coli": "not soluble"},
      {"sequence": "MGSDKIHHHHHHMKFSLGPILYFWPKQQVFDFYQQAAESDVEHVYLGETVCSKRRELKLDDYLAIAHMLREAGKKVTLSTMTLLEAPAELRELGKYCDNGEFDVEANDVSAIGVLQEQGLNFTAGPGINIYNHQSLRRLIDMGMTRWVVPFELSRDWLQDVLQHNLIDTVRDCFDVEVFSFGHIPLAWSGRCFTARSENRPKDQCELCCIKYPEGREVKSQEGQQVFVLNGIQTQSGTRYNLINQLPGMNGLVDIVRISPQPEGTFDWLQRFRSNINGEHPVTLTSKENNGYWLQLAGLATG", "soluble on expression in E. coli": "not soluble"},
      {"sequence": "MRCYAKIHSYQLLFVADVDYDCHHKDKFFRRHCVVAKILPRFDAVLFLDADTGVVNPSRKIEEFLKPGIDITFVNRFCNWEIASGFYLARNTPFAINLLNNFADYESKLPNSFHGTDNGAIHIFLAEKIFPQASIEIGICRRAYEKSTSVEDLILYEACIKALFGVVTDFGKIQILRKGTGWARDGWLTSMVWHPETDFMLHGWKTNALIPTPTDPLVAIEMSMSQWFNPLNGSIDLSKCNSHNSTWNYDARLLGNNEEIQKSLHRIQKENSILQVKAYSDFSKFISL", "soluble on expression in E. coli": "not soluble"},
      {"sequence": "MGHHHHHHSHGYRSVRERTSTSGTHRDREDSKFRRTRPLECQDALETAARAEGLSLDASMHSQLRILDEEHPKGKYHHGLSALKPIRTTSKHQHPVDNAGLFSCMTFSWLSSLARVAHKKGELSMEDVWSLSKHESSDVNCRRLERLWQEELNEVGPDAASLRRVVWIFCRTRLILSIVCLMITQLAGFSGPPTDLRKEGMNLQTLRLRSSNKHQRFPGLPRAPVYQKLLERMKH", "soluble on expression in E. coli": "soluble"},
      {"sequence": "MSLTSDTKEKVEYSTDKYKVETNRFWDNWFISVGAGGQVYFGDHDKQIDFGDRIAPALDIAIGKWFTPGIGIRFMYSGLKSKGATRDDWECDITHGTGEHVPGWAGVPGDDLQYSKYKMSNLHADVLFNVLNLFGGYNENRKWDLSPYAGLGWARVYDSPSSKEVSANLGILTSWHFCDVLALNLDVRGMFVNDRFDGEGGGRFGEGNLSATIGLTYKFKQRSWDRSKTVYRYNYGDLESMRRKLNDMSAENDRLKKALADGDKQKAQTIVKKIASANLVTFKINRTKLSNEARANLGLLAEIIKSGDPETVYTITGYADAGTGSSKGNERLSKERAENVYDCLVKEFGVSEKQLRIDYKGGVDNMFYNDPRLSRAVITRGEEGHHHHHH", "soluble on expression in E. coli": "not soluble"},
      {"sequence": "MNGIKTGLGITPGEHIISADSALSRNIRQCFCLSCHGRLILQTDAQGAWFEHDLHALSEQQKADCVVLNPEKSHPYIEDMAMFLSPLPVVLEWHCVMCEQFFHGKKFCEACGTGIYCRAVCTKSVYSYQPDLFEDCGGAST", "soluble on expression in E. coli": "not soluble"},
      {"sequence": "MSLSRSFDTAPLGGRLNLTVADAEVFRNFLPVGQTVKGSLNAAVTLGGSIADPHLGGSINGDKLYYRNQTQGIILDNGSLRSHIAGRKWVIDSLKFRHEGTAELSGTVGMENSGPDVDIGAVFDKYRILSRPNRRLTVSGNTRLRYSPQKGISVTGMIKTDQGLFGSQKSSMPSVGDDVVVLGEVKKEAAAPLPVNMNLTLDLNDGIRFAGYGADVTIGGKLTLTAQSGGSVRGVGTVRVIKGRYKAYGQDLDITKGTVSFVGPLNDPNLNIRAERRLSPVGAGVEILGSLNSPRITLTANEPMSEKDKLSWLILNRAGSGSSGDNAALSAAAGALLAGQINDRIGLVDDLGFTSKRSRNAQTGELNPAEQVLTVGKQLTGKLYIGYEYSISSAEQSVKLIYRLTRAIQAVARIGSRSSGGELTYTIRFDRFSGSDEGHHHHHH", "soluble on expression in E. coli": "not soluble"}
    ]}
  ]
}
